Measured values as given in FireProtDB (doi:10.1093/protein/14.12.967).
“And” between values parts separate entries of the source, which are not always exact repeats. Identical values can stand only once.

B1: Lysozyme C, milk isozyme, P81708 (parent)
chain: KIFSKCELARKLKSMGMDGFHGYSLANWVCMAEYESNFNTQAFNGRNSNGSSDYGIFQLNSKWWCKSNSHSSANACNIMCSKFLDDNIDDDIACAKRVVKDPNGMSAWVAWVKHCKGKDLSKYLASCNL

Variants of: B1
Conditions: Canis lupus familiaris, pH 4.5, Thermal, DSC, sodium acetate 50 mM, reversible: yes, structure 1EL1, whole UniProt chain shown

Row | Variant | ddG of mutation (higher = less stable) (66.4 °C) | unfolding enthalpy (calorimetric) (66.4 °C) | unfolding free energy (66.4 °C) | change of melting temperature, mutant - wild type (higher = more stable) (transition: 3) | unfolding enthalpy (calorimetric) (transition: 3)
1 | KIFSKCELARKLKSMGMDGFHGYSLANWVCMAEYESNFNTQAFNGRNSNGSSDYGIFQLNSKWWCKSNSHSSANACNIMCSKFLDDNIDDDIACAKRVVKDPNGMSAWKAWVKHCKGKDLSKYLASCNL [V109K] | 1.8 kJ/mol | 134 kJ/mol | 7.2 kJ/mol | -4.16 °C | 183 kJ/mol and 179 kJ/mol
2 | KIFSKCELARKLKSMGMDGFHGYSLANWVCMAEYESNFNTQAFNGRNSNGSSDYGIFQLNSKWWCKSNSHSSANACNIMCSKFLDDNIDDDISCAKRVVKDPNGMSAWVAWVKHCKGKDLSKYLASCNL [A93S] | 1.09 kJ/mol | 134 kJ/mol | 7.91 kJ/mol | -2.59 °C | 166 kJ/mol and 183 kJ/mol
3 | KIFSKCELARKLKSMGMDGFGGYSLANWVCMAEYESNFNTQAFNGRNSNGSSDYGIFQLNSKWWCKSNSHSSANACNIMCSKFLDDNIDDDIACAKRVVKDPNGMSAWVAWVKHCKGKDLSKYLASCNL [H21G] | 2.01 kJ/mol | 122 kJ/mol | 6.99 kJ/mol | -3.28 °C | 125 kJ/mol and 170 kJ/mol
4 | KIFSKCELARKLKSMGMDGFHGYSLANWVCMAEYESNFNTQAFNGRNSNGSSDYGLFQLNSKWWCKSNSHSSANACNIMCSKFLDDNIDDDIACAKRVVKDPNGMSAWVAWVKHCKGKDLSKYLASCNL [I56L] | 1 kJ/mol | 133 kJ/mol | 7.99 kJ/mol | -2.44 °C | 99.6 kJ/mol and 183 kJ/mol
